Reference: the supplement of paper PMC9170038

Tested on: MS2 coat protein
Experiment: apparent KD of MS2 coat protein; designed switch direction (-1 OFF switch, 1 ON switch): -1; higher = weaker reporter binding
In short: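 Stalled E. coli RNA polymerase transcribed designed RNA switches on Illumina chips, which were then titrated with SNAP-549-labelled MS2 coat protein, doubling from 0.7 or 1.5 nM to 3 µM. Steps lasted from 0.8–1.5 h at the lowest concentration to 10–20 min at the highest. The apparent KD is each design's median over clusters of curve-fitted normalised fluorescence.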

[1] = input ligand: microRNA oligo, concentration not stated
[2] = Eterna round: R95, input ligand: microRNA oligo, concentration not stated

| Sequence | apparent KD of MS2 coat protein (input ligand: FMN 200 uM) [nM] | apparent KD of MS2 coat protein [1] [nM] | apparent KD of MS2 coat protein (input ligand: none) [nM] | apparent KD of MS2 coat protein [2] [nM] |
| --- | --- | --- | --- | --- |
| GGCCGUUUUCGGCCCGGGCGGGCCACAUGAGGAUCACCCAUGUAGGAUAUCGCCGGGUUUCCCGGCGAGAAGGGCAGGGCCCGC [first try] (Eterna round: R96, puzzle: Exclusion NG 3) | 13.4 | 13.7 | 17.5 |  |
| GGCGUGUCGCGAGGAUAUUCAAACGGACAUGAGGAUCACCCAUGUGAAAGGAAUGUCGAGGUUAUGGAGAAGGCGUUCACGCCG [Qubizace] (Eterna round: R96, puzzle: Exclusion NG 2) | 549 | 92 | 153 |  |
| GGCUUCUGAGGAUAUUAACACCGUUACAUGAGGAUCACCCAUGUUCCUCACGCUACGGCUUAAGAAGGCAGAUGAA [Eternabot (Original) Solution 32] (Eterna round: R97, puzzle: Exclusion 5) | 29.6 |  | 64.9 |  |
| GGGAAGAACCAACAAGUAGACAUGAGGAUCACCCAUGUAGACUUCAUGUGCACGCAAAGCGUGCAAGCUCGUCUUAU [AK-miRNA-r3-14.4] (Eterna round: R97, puzzle: Sensor, turn-off variant 1) | 22.9 |  | 19.8 |  |
| GGGCCCGGAGGAUAUACAAUCCCGGGUUGAAAGGCCCGGGUACAUGAGGAUCACCCAUGUAGAAGGCCGGGCCC [-42.3, -39.6 kcal A 24%, 5c bis,0] (Eterna round: R97, puzzle: Exclusion 2) | 20.9 |  | 13.8 |  |
| GGGCCCGGAGGAUAUACAUGAGGAUCACCCAUGUAGGGCUCGGGUAUUCUCGGGCUCUGUAGAAGGCCGGGCCC [-39.6, -36.7 kcal, A 19%, 5,0] (Eterna round: R97, puzzle: Exclusion 3) | 17.5 |  | 18.6 |  |
| GGGCCCGGUGUGAGGAUAUGUUUGGGUAAACCCGGGCAGAAGGCACAUGAGGAUCACCCAUGUAAGCCGGGCCC [-37.5, -35.4 kcal, A 23%, 5bbis-0] (Eterna round: R97, puzzle: Brourd's mod of Exclusion 4) | 14.7 |  | 19.2 |  |
| GGGUAGGGAGGAUAUCCAAUAUAUGACAUGAGGAUCACCCAUGUUUCCACUCGUACCUCCGGAGAAGGCCCAUCCC [Ex5 #14] (Eterna round: R97, puzzle: Exclusion 5) | 25.6 |  | 21.4 |  |
| GGGUAGUGAGGAUAUACAUGAGGAUCACCCAUGUUUGCGACACUGGAGGCGUCUCUAUGUAGAAGGCGCGGCCG [EX3 B.16] (Eterna round: R97, puzzle: Exclusion 3) | 30.4 |  | 18.9 |  |
| GGGUCACAUGAGGAUCACCCAUGUGAGGAUAUGAUACUAUGUACUUCGGUACAUAGUAUCAGAAGGCACAUCCC [Ex1-3: 17] (puzzle: Exclusion 1) |  |  |  | 18.6 |
| GGGUGACAGUUAGGAUAUCUUAGCACGCCGUAGAGAGAAGGGACAUGAGGAUCACCCAUGUUGUAGUGCCUCAAACACUGCUAG [Beintitian] (Eterna round: R96, puzzle: Exclusion NG 1) | 45.7 | 31.9 | 48.3 |  |
| GGGUGACAUGAGGAUCACCCAUGUGAGGAUAUCUGGAUACUCUUUAUUUUAGAUAUCCAGAGAAGGCACACCCU [Ex1-3: 6Z] (puzzle: Exclusion 1) |  |  |  | 356 |
| GGGUGCAGGCUGAGGUCCUACAUGAGGAUCACCCAUGUGGUCCGGUGACGUGAGUCGCCGGACUUGGCUCGUCUUGU [salish99_S_TOV1_R5_011] (Eterna round: R97, puzzle: Sensor, turn-off variant 1) | 42.2 |  | 52.1 |  |
| GGGUGUGAAGGAUAUACAUGAGGAUCACCCAUGUGAGAGGAGAAUGUUGAGGAGGUUGGUAGAAGGUCAGGAGG [JR_Exclusion3_Sub010] (Eterna round: R96, puzzle: Exclusion 3) | 202 | 105 | 165 |  |
